Assay results published in the nanobody polyreactivity screen of Harvey et al. (2022).

Assay: yeast display, Sf9 membrane polyspecificity reagent, FACS + sequencing; frameworks hold sequencing errors
How it was run: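 Synthetic nanobody libraries on Saccharomyces cerevisiae BJ5465 were galactose-induced for 36–48 hours, stained 1 hour at 4 °C with 10% biotinylated, detergent-solubilized Sf9 membrane reagent and enriched on streptavidin microbeads. FACS then separated cells into low and high (top ~1%) gates by anti-HA (expression) and streptavidin (reagent binding) fluorescence. Genes were colony-PCR amplified, MiSeq 2 × 250 sequenced and CDR-length filtered. A clone's polyreactivity label is that of its gate of origin.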

Sequence: QVQLVESGGGLVQAGGSLRLSCAASGRIFKYYAMGWYRQAPGKERELVAAITSSGVSTYADSVKGRFTISRDNAKNTVYLQMISLKPEDTAVYYCADDYVREGLGYDYWGQGTQVTVSS
- polyreactivity (PSR sort gate): low polyreactivity

Sequence: QVQLVESGGGLVQAGGSLRLSCAASGRIFKYYAMGWYRQAPGKERELVAAITYSGGSTYADSVKGRFTISRDNAKNTVYLQMNSLKPEDTAVYYCAVARRSRVVSSIRGDYWGQGTQVTVSS
- polyreactivity (PSR sort gate): high polyreactivity

Sequence: QVQLVESGGGLVQAGGSLRLSCAASGRIFKYYGMGWYRQAPGKERELVAAISRGSSTNYADSVKGRFTISRDNAKNTVYLQMNSLKPEDTAVYYCAVSLRRGGSGYAYDYWGQGTQVTVSS
- polyreactivity (PSR sort gate): high polyreactivity

Sequence: QVQLVESGGGLVQAGGSLRLSCAASGRIFKYYGMGWYRQAPGKESELVAAITRGDSTNYADSVKGRFTISRDNAKNTVYLQMNSLKPEDTAVYYCNVGTRRGYDYWGQGTQVTVSS
- polyreactivity (PSR sort gate): high polyreactivity

Sequence: QVQLVESGGGLVQAGGSLRLSCAASGRIFKYYTMGWYRQAPGKERELVAAISRDDSTNYADSVKGRFTISRDNAKNTVYLQMNSLKPEDTAVYYCAKGYHQYAGFYYWGLGTQVTVSS
- polyreactivity (PSR sort gate): high polyreactivity

Sequence: QVQLVESGGGLVQAGGSLRLSCAASGRIFKYYTMGWYRQATGKEREFVASITGSGGTTYYADSVKGRFTISRDNAKNTVYLQMNSLKPEDTAVYYCNAYSYPYWYRYYYWGQGTQVTVSS
- polyreactivity (PSR sort gate): high polyreactivity

Sequence: QVQLVESGGGLVQAGGSLRLSCAASGRIFKYYVMGWYRQAPGKERELVATISRRDASTYYADSVKGRFTISRDNAKNTVYLQMNSLKPEDTAVYYCNADRARSERIKYDYWGQGTQGTVSS
- polyreactivity (PSR sort gate): high polyreactivity

Sequence: QVQLVESGGGLVQAGGSLRLSCAASGRIFLDYAMGWYRQAPGKERELVAAIRYSGVGTYYADSVKGRFTISRDNAKNTVYLQMNSLKPEDTAVYYCNAVTKVGYLRRRDYWGQGTQVTVSS
- polyreactivity (PSR sort gate): high polyreactivity

Sequence: QVQLVESGGGLVQAGGSLRLSCAASGRIFLFYAMGWYRQAPGKERELVAAISSTDDTYYADSVKGRFTISRDNAKNTVYLQMNSLKPEDTAVYYCAAYSIISQSEMYYWGQGTQVTVSS
- polyreactivity (PSR sort gate): low polyreactivity

Sequence: QVQLVESGGGLVQAGGSLRLSCAASGRIFLINAMGWYRQAPGKERELVAAITVSGTRTYYADSVKGRFTISRDNAKNNVYLQMNSLKPEDTAVYYCAAKLQYRWTCGYYYWGQGTQVTVSS
- polyreactivity (PSR sort gate): high polyreactivity

Sequence: QVQLVESGGGLVQAGGSLRLSCAASGRIFLINAMGWYRQAPGKESEFVAAIRTGGNTYYADSVKGRFTLSRDNAKNTVYLQMNSLKPEDTAVYYCAADRIYPYYRWSGAHRSDVDYWGQGTQVTVSS
- polyreactivity (PSR sort gate): low polyreactivity

Sequence: QVQLVESGGGLVQAGGSLRLSCAASGRIFLKYTLGWYRQAPGKERELVAAISRGGSTYYADSVKGRFTISRDNAKNTVYLQMNSLKPEDSAVYYCAATSYRRTGYNYWGQGTQVTVSS
- polyreactivity (PSR sort gate): high polyreactivity

Sequence: QVQLVESGGGLVQAGGSLRLSCAASGRIFLKYTMGLYRQAPGKERELVAAISRGGSTYYADSVKGRFTISRDNAKNTVYLQMNRLKPEDTAVYYCAATSYRRTGYNYWGQGTQVTVSS
- polyreactivity (PSR sort gate): high polyreactivity

Sequence: QVQLVESGGGLVQAGGSLRLSCAASGRIFLQYAMGWYRPAPGKERELVAAISRSGGSTYYADSVKGRFTISRDTAKNSVYLQMNSQKPEDTAVYYCAAALFGNRYYYWGQGTQVTVSS
- polyreactivity (PSR sort gate): low polyreactivity

Sequence: QVQLVESGGGLVQAGGSLRLSCAASGRIFLQYAMGWYRQAPGKERELVAGISLRGGSTYYADSVKGRFTISRDNAKNTVYLQMNSLKPEDTAVYYCAADVIVTVETNTSGPSFTEYDYWGQGTQVTVSS
- polyreactivity (PSR sort gate): low polyreactivity

Sequence: QVQLVESGGGLVQAGGSLRLSCAASGRIFLRNAMGWYRQAPGKERELVATITSRGGSTYYADSVKGRFTISRDNAKNTVYLQMNSLKQEDTAVYYCAADPRRYRGFGYVYGGFYYWGQGTQVTVSS
- polyreactivity (PSR sort gate): low polyreactivity

Sequence: QVQLVESGGGLVQAGGSLRLSCAASGRIFLRYAMGWYRQAPGKERELVAVISSGGSTYYADSVKGRFTISSDNAKNTVYLQMNSLKPEDSAVYYCAASRHDSRYQYDYWGQGTQVTVSS
- polyreactivity (PSR sort gate): high polyreactivity

Sequence: QVQLVESGGGLVQAGGSLRLSCAASGRIFLRYTMGWYRQAPGKDRELVAAISGGGSTNYADSVKGRFTISRDNAKNTVYLQMNSLKPEDTAVYYCAADYIWLSHPYRRVDFYYWGQGTQVTVSS
- polyreactivity (PSR sort gate): low polyreactivity

Sequence: QVQLVESGGGLVQAGGSLRLSCAASGRIFLSNALGWYRQAPGKERELVAAINSGGNTDYADSVKGRFTISRDNAKNTVYLQMNSLKPEDTAVYYCAADAFSWDHDYWGQGTQVTVSS
- polyreactivity (PSR sort gate): low polyreactivity

Sequence: QVQLVESGGGLVQAGGSLRLSCAASGRIFLTYAMGWYRPAPGKERELVAAIRSRSGTTYYADSVKGRFTISRDNAKNTVYLQMNRLKPEDTAVFYCAAGGKSRSYYWGQGTQVTVSS
- polyreactivity (PSR sort gate): high polyreactivity

Sequence: QVQLVESGGGLVQAGGSLRLSCAASGRIFLVNAMGWYRQAPGKERELVAAINGSGGSTYYADSVKGRFTISRDNAKNTVYLQMNSLKPEDTAVYYCAAKYVYSVGNYRYDYWGQGTQVTVSS
- polyreactivity (PSR sort gate): low polyreactivity

Sequence: QVQLVESGGGLVQAGGSLRLSCAASGRIFLVNAMGWYRQAPGKERELVAAISWSSGSTYYADSVKGSITISRDNAKNTVYLQMNSLKPEDTAVYYCAADGSSRGRYRYGYWGQGTQVTVSS
- polyreactivity (PSR sort gate): high polyreactivity

Sequence: QVQLVESGGGLVQAGGSLRLSCAASGRIFLVYAMGWYRQAPGKERELVAAISWRGGRTYYADSVKGRFTISRDNAKNTFYLQMNSLKPEDTAVYYCAAASKYSQFEYDYWGQGTQVTVSS
- polyreactivity (PSR sort gate): high polyreactivity

Sequence: QVQLVESGGGLVQAGGSLRLSCAASGRIFLVYAMGWYRQAPGKERELVAAISYSGGRTYYADSVKGRFTISRDNAKNTVYLQMNSLKPEDTAVYYCAAKRITYYGGGRFYYWGQGTQVTVSS
- polyreactivity (PSR sort gate): high polyreactivity

Sequence: QVQLVESGGGLVQAGGSLRLSCAASGRIFLWYAMGWYRQAPGKERELVASITRSGVTTYYADSVKGRFTISRDNAKNTVYLQMNSLKPEDTAVYYCNKDFRGDAIKLDVNYWGQGTQVTVSS
- polyreactivity (PSR sort gate): low polyreactivity

Sequence: QVQLVESGGGLVQAGGSLRLSCAASGRIFLYNAMGWYRQAPGKERELVAAITSSGSSTYYADSVKGRFTISRDNAKNTVYLQMNSLKPEDTAVYYCNRYTRKTRRVDYWGQGTQVTVSS
- polyreactivity (PSR sort gate): high polyreactivity

Sequence: QVQLVESGGGLVQAGGSLRLSCAASGRIFLYYAMGWYRQAPGKERELVAAISRRGASTYYADSVKGRFTITRDNAKNNVYLQMHSLKPEDTAVYYCGTVPGKSGDYWGQGTQLTVSS
- polyreactivity (PSR sort gate): high polyreactivity

Sequence: QVQLVESGGGLVQAGGSLRLSCAASGRIFMNYDMGWYRQPPGKERELVADISISGSTDYADSVKGRFTISRDNAKNTVYLQMNSLKPEDTAVYYCATSFYVSDYYVPYEMGYWGQGTQVTVSS
- polyreactivity (PSR sort gate): low polyreactivity

Sequence: QVQLVESGGGLVQAGGSLRLSCAASGRIFNAYATGWYRKAPGKERELVAAISSIGGRTYYADSVKGRFTISRDNAKNTVYLQMNSLKPEETAVYYCAARRRSRQYRYDYWGQGTQVTVSS
- polyreactivity (PSR sort gate): high polyreactivity

Sequence: QVQLVESGGGLVQAGGSLRLSCAASGRIFNDYAMGWYRPAPGKESELVANYADSVKGRFTISRDNAKNTVYLQMNSLKPEDTAVFYCAADFPSFPDFRPEYDYWGQGTQVTVSS
- polyreactivity (PSR sort gate): low polyreactivity

Sequence: QVQLVESGGGLVQAGGSLRLSCAASGRIFNEYGMGWYRQAPGKERELVAAITWGGGSTYYADSVKGRFTISRDNAKNTVYVQMNSLKPEDTAVYYCNAVSERPIPWYYYWGQGTQVTVSS
- polyreactivity (PSR sort gate): low polyreactivity

Sequence: QVQLVESGGGLVQAGGSLRLSCAASGRIFNFYAMGWYRQAPGKERELVASITSGGRTSYADSVKGRFTISRDNAKNTVYLQMNSLKPEDTAVYYCAAVLFGYPRTIGTWYDRYYYWGQGTQVTVSS
- polyreactivity (PSR sort gate): high polyreactivity

Sequence: QVQLVESGGGLVQAGGSLRLSCAASGRIFNGNAMGWYRQAPGKEREFVAAITWNGGRTYYADSVKGRFTISRDYAKNTVYLQMNSLKPEDTAVYYCNADPYHRRSSGDYWGQGTQVTVSS
- polyreactivity (PSR sort gate): high polyreactivity

Sequence: QVQLVESGGGLVQAGGSLRLSCAASGRIFNGNAMGWYRQAPGKERELVAAISTSGGRTYYADSVKGRFTISRDNAKNTVYLQMNSLKPEDTAVYYCAARYFRRDYIDYDYWGQGTQVTVSS
- polyreactivity (PSR sort gate): low polyreactivity

Sequence: QVQLVESGGGLVQAGGSLRLSCAASGRIFNGNAMGWYRQAPGKERELVAAISVSGGSTYYADSVKGRFTISRDNAKNTVYLQMNSLKPEDTAVYYCAARTSSYSFPYAYNYWGQGTQVTVSS
- polyreactivity (PSR sort gate): high polyreactivity

Sequence: QVQLVESGGGLVQAGGSLRLSCAASGRIFNGYAMGWYRQAPGKERELVAAINSSGGSTYYADSVKGRFTISRDNAKNTVYLQMNSLKPEDTAVYYCARVSYHYRTYDYWGQGTQVTVSS
- polyreactivity (PSR sort gate): high polyreactivity

Sequence: QVQLVESGGGLVQAGGSLRLSCAASGRIFNIYALGWYRQAPGKERELVAAISGSGSTYYADSVKGRFTISRDNAKNTVYLQMNSLKPEDTAVYYCAARSLVRYYHNANYYPYYYWGQGTQVTVSS
- polyreactivity (PSR sort gate): high polyreactivity

Sequence: QVQLVESGGGLVQAGGSLRLSCAASGRIFNKYTMGWYRQAPGKERELVAAIRGRGGSTYYADSVKGRFTISRDNAKNTVYLQMNSLKPEDTAVYYCAADSGPFYSKTPTRYGYWGQGTQVTVSS
- polyreactivity (PSR sort gate): high polyreactivity

Sequence: QVQLVESGGGLVQAGGSLRLSCAASGRIFNPNAMGWYRQAHGKESELVAAISGSGGSTYYADSVKGRFTISRDNAKNTVNLQMNSLKPEDTAVYYCNKLLSQRRYHSEMDYWGQGTQVTVSS
- polyreactivity (PSR sort gate): high polyreactivity

Sequence: QVQLVESGGGLVQAGGSLRLSCAASGRIFNTYAMGWYRQAPGKERELVAAISWRGVSTYYADSVKGRFTISRDNAKNTVYLQMNSLKAEDTAVYYCAALPFWWGGYWGQGTQVTVSS
- polyreactivity (PSR sort gate): high polyreactivity

Sequence: QVQLVESGGGLVQAGGSLRLSCAASGRIFNTYAMGWYRQAPGKERELVARITWSAGRTYYADSVKGRFTISRDNAKNTVYLQMNSLKPEDTAVYYCAAEGFYRSSPVRTYIGYDYWGQGTQVTVSS
- polyreactivity (PSR sort gate): high polyreactivity

Sequence: QVQLVESGGGLVQAGGSLRLSCAASGRIFNYNAMGWYRQAPGKERELVAVITSGDSTNYADSVKGRFTISRDNAKNTVYLQMNSLKPEDTEVYYCAAEYYSIRYGPHSIEVYGMDYWGQGTQVTVSS
- polyreactivity (PSR sort gate): low polyreactivity

Sequence: QVQLVESGGGLVQAGGSLRLSCAASGRIFNYYAMGWYRQAPGKARELVAAISGSGGRTYYADSVKGRFTISRDNAKNTVYLQMNSLKPEDTAVYYCAADGVDGYDYWGQGTQVTVSS
- polyreactivity (PSR sort gate): high polyreactivity
